Values of other authors in paper PMC3702509, “Label Free Fragment Screening Using Surface Plasmon Resonance as a Tool for Fragment Finding – Analyzing Parkin, a Difficult CNS Target” (PLoS ONE, 2013).

Target: UblD (Parkin ubiquitin-like domain) Ubl domain (Homo sapiens) (UniProt O60260)
Sequence (O60260 1-76): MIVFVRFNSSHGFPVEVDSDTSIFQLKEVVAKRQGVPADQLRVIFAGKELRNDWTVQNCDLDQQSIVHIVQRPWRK

Parkin (ΔUblD) ΔUblD, sequence (O60260 77-465, stated change not applied): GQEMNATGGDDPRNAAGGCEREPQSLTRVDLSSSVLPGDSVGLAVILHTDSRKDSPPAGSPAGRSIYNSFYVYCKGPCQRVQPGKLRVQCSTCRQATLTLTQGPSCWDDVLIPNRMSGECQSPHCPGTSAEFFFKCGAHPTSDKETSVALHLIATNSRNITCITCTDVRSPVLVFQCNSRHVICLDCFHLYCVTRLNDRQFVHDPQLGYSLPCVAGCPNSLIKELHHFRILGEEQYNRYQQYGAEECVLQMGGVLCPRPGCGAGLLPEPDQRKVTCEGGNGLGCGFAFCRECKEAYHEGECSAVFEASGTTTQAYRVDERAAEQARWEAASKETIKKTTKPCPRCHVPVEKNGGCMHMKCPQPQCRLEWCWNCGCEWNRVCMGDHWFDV

In the case of “Parkin (ΔUblD) ΔUblD (from UniProt O60260)”, the Kd is given as 2.6 µM.
